For data set [1], the system named is CN1CCC[C@@H]1Cc1c[nH]c2ccc(CCS(=O)(=O)c3ccccc3)cc12. Kind of data set: purified protein, by the assay type. The settings on record: other: ATPase, 0–300 μM, 30 min, 37°C.
For data set [2], the system named is CC[C@@]1([C@@H]2O[C@@H]([C@H]3O[C@@](O)(CO)[C@H](C)C[C@@H]3C)C[C@@H]2C)CC[C@H]([C@]2(C)CC[C@]3(C[C@H](O)[C@@H](C)[C@@H]([C@@H](C)[C@@H](OC)[C@H](C)C(=O)O)O3)O2)O1. Briefly: purified protein, by the assay type. The settings on record: other: ATPase, 0–300 μM, 30 min, 37°C.
Text: The Gentest ATPase assay (Corning, Germany) was used to investigate the binding kinetics of the panel of P-gp substrates against membranes constituted to display human MDR1, mouse Mdr1a, mouse Mdr1b and mouse Bcrp. The assays measure the accumulation of inorganic phosphate (absorbance at 800 nm) produced in the breakdown of ATP to ADP. […] The assays were used in accordance with the manufacturer’s protocol to calculate (GraphPad Prism) the Michaelis-Menten parameters Km and VMAX. For the assay test compounds were serially diluted to produce an assay concentration range of 0–300 μM with the kinetics of ATP turnover examined over 30 min at 37°C.

This is an account of results in article PMC5736782, “The Differential Absorption of a Series of P-Glycoprotein Substrates in Isolated Perfused Lungs from Mdr1a/1b Genetic Knockout Mice can be Attributed to Distinct Physico-Chemical Properties: an Insight into Predicting Transporter-Mediated, Pulmonary Specific Disposition” (Pharmaceutical Research, 2017).

Sequence of mouse Mdr1a (Mus musculus) (chain, as listed by the source): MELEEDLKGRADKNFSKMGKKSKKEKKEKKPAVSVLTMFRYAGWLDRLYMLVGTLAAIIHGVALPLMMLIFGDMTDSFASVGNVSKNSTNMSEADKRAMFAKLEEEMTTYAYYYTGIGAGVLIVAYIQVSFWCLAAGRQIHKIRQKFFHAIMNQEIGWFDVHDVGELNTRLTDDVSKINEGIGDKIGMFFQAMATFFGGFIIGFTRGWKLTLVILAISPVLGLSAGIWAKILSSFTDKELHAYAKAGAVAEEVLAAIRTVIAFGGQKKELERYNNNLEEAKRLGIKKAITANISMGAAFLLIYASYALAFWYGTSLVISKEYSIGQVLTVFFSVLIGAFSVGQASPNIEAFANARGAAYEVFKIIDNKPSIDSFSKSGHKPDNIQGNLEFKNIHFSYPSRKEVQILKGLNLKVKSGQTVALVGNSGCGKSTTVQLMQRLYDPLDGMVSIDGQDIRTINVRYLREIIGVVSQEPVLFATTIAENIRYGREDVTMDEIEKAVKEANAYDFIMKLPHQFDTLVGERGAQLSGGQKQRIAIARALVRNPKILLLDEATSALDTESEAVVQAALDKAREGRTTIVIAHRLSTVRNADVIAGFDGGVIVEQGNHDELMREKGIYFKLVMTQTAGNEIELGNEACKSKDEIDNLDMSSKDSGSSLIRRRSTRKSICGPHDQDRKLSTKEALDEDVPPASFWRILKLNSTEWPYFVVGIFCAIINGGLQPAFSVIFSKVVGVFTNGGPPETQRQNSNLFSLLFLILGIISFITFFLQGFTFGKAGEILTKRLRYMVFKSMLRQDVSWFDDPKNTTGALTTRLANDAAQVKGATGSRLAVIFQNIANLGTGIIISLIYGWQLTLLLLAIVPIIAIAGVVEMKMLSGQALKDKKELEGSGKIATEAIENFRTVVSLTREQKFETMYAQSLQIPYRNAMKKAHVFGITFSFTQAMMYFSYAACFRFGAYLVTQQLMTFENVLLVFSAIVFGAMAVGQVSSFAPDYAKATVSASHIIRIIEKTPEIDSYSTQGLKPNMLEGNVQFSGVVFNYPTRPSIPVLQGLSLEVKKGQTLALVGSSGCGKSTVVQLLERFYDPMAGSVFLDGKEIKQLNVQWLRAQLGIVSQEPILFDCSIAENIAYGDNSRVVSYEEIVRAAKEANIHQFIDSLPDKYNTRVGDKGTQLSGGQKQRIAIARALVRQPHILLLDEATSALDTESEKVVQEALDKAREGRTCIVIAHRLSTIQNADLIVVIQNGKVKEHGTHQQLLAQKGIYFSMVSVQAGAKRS

As to human MDR1 (Homo sapiens), the Km (usually the substrate concentration at which the rate is half of its maximum) is 91.5 µM in data set [1] and 14.8 µM in data set [2]. Besides, the values for the Vmax in data set [1] and in data set [2] were 42.2 µM/min and 15.6 µM/min, respectively.
As to mouse Mdr1a (Mus musculus), in data set [1], the Km worked out at 45.6 µM and the maximum rate (Vmax) (usually the rate approached at saturating substrate) turned out to be 32.6 µM/min. Moreover, the Km in data set [2] is listed as 22.0 µM.
The corresponding values for mouse Mdr1b (Mus musculus) are 58.1 µM, 76.1 µM/min and 30.6 µM.
